Two molecules from US20260224736A1 (Sanofi, published 2026) can be followed below.

One experiment deals with T1, human CD105 (human, UniProt P17813 26-658).
T1 construct: whole, on cells; The target is presented on primary human HSCs; also called HuCD105; endoglin
T1 sequence (looked up): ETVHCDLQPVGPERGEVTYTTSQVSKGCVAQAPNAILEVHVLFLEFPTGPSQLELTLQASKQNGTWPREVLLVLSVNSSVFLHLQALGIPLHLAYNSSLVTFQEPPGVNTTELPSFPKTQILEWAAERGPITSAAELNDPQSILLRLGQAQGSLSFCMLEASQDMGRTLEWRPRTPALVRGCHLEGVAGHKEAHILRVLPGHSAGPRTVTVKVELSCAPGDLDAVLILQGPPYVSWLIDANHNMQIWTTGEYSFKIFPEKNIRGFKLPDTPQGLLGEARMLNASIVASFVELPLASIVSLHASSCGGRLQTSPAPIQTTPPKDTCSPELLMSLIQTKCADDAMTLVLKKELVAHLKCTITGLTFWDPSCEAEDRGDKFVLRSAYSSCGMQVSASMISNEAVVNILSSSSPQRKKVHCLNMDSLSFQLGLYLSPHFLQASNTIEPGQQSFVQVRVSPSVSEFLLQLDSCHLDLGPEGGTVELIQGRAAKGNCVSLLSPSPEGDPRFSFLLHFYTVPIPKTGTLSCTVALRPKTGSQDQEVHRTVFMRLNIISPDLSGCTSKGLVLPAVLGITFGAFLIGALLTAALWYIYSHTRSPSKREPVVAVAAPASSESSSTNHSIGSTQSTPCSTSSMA
In words: flow cytometry of primary human HSCs treated with Fab-conjugated KC3 LNPs; DiI fluorescence as measure of LNP binding. The source says: (§1) For conjugation with full-length antibodies, the LNPs were fused with a streptavidin moiety, and the conjugated full-size antibodies were tagged with biotin. Specifically, lysine groups on the streptavidin were reacted with Traut's reagent to covalently attach thiol groups. The thiolated streptavidin was then conjugated to DSPE-PEG(2k)-maleimide via covalent coupling between the maleimide group and the thiol groups attached to the streptavidin. The streptavidin-fused lipid was then reacted with the biotinylated antibody. Finally, the lipid-streptavidin-antibody conjugate was inserted into the LNP by incubation at 60° C. for 1 hour. The LNPs also incorporated a fluorescent lipid dye,′,1′-Dioctadecyl-3,′,3′,3′-Tetramethylindocarbocyanine-5,5′-Disulfonic Acid (DiIC(18)5-DS). The GFP mRNA was used to measure transfection, as the mRNA must enter the cell and escape the endosome to be transcribed into protein, allowing for fluorescence. The DiIC(18)5-DS was used as a measure of LNP targeting because the cells will have DiI fluorescence so long as the LNPs are capable of binding to the HSCs. Therefore, GFP expression provided a measure of LNP transfection while DiI positive events were representative of Fabs that target H—SCs. […] The HSCs were incubated with the LNPs for 24 and 72 hours, after which the GFP fluorescence and DiI fluorescence were measured using flow cytometry.

In a further experiment the target is T2, human CD117 (human, UniProt P10721 26-976).
T2 construct: whole, on cells; The target is presented on primary human HSCs, either in vitro or engrafted in NSG mice; No recombinant CD117 was used; also called HuCD117; c-kit
The description is as above.
Description: as §1

T2 sequence (P10721 26-976): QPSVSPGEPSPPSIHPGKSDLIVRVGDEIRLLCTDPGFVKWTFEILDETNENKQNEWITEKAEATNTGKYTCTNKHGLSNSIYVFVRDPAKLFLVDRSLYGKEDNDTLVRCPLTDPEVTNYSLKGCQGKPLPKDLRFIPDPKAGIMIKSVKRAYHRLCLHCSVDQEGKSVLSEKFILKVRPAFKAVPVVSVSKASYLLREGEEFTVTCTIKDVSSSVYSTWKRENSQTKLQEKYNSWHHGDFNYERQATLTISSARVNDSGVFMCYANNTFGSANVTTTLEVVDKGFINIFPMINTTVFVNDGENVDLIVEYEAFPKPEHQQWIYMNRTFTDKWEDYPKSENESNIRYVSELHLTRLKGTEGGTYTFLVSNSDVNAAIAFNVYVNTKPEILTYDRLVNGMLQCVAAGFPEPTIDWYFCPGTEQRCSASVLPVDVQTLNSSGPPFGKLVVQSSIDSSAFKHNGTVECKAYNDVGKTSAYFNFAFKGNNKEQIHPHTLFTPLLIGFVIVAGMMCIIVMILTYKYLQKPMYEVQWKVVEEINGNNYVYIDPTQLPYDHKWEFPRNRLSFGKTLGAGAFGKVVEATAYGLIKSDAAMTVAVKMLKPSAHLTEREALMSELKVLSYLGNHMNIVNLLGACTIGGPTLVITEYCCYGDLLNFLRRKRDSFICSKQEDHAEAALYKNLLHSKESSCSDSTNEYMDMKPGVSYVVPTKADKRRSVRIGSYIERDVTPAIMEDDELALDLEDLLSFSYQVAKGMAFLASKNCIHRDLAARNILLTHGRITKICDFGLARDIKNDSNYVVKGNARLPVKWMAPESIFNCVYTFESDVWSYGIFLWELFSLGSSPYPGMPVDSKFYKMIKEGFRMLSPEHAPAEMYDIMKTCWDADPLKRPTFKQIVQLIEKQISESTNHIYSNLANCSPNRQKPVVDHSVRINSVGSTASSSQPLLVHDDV

B1: anti-HuCD105 Ab3 Fab bDS (Fab, V domains shown)
VH: EVKLEESGGGLVQPGGSMKLSCAASGFTFSDAWMDWVRQSPEKGLEWVAEIRSKASNHATYYAESVKGRFTISRDDSKSSVYLQMNSLRAEDTGIYYCTRWRRFFDSWGQGTTLTVSS
VL: QIVLSQSPAILSASPGEKVTMTCRASSSVSYMHWYQQKPGSSPKPWIYATSNLASGVPVRFSGSGSGTSYSLTISRVEAEDAATYYCQQWSSNPLTFGAGTKLELKR
modifications: C-terminal cysteine in the heavy chain covalently coupled to DSPE-PEG(2k)-maleimide (lipid conjugate inserted into the LNP)
notes: Tested only as a lipid-Fab conjugate on the surface of LNPs
Take B1: the binding result in the experiment with human CD105 is listed as “binds”.

B2: anti-HuCD117 Ab2 Fab bDS (Fab, V domains shown)
VH: EVQLVESGGGLVQPGGSLRLSCAASGFTFSDADMDWVRQAPGKGLEWVGRTRNKAGSYTTEYAASVKGRFTISRDDSKNSLYLQMNSLKTEDTAVYYCAREPKYWIDFDLWGRGTLVTVSS
VL: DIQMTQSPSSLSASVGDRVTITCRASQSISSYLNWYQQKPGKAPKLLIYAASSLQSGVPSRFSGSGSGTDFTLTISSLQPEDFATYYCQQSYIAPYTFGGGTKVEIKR
modifications: C-terminal cysteine in the heavy chain covalently coupled to DSPE-PEG(2k)-maleimide (lipid conjugate inserted into the LNP)
notes: as for B1
With B2, the binding result with human CD117 is “binds”.
